Patent US8673850B2, “PCSK9 inhibitors and methods of use thereof” (Institut de Recherches Cliniques de Montreal, priority 2008, dated 2014)

Target: PCSK9-V5 (Homo sapiens, UniProt Q8NBP7)
Test: Far Western blot with PCSK9-V5 conditioned media
Assay type: binding
Design: made in house; host or cells: CHO-K1 cells (conditioned medium, not purified)
Conditions: lysates of cells overexpressing the construct
Method: Lysates (20 to 30 μg protein), media or purified AnxA2-(His)6 were heated in reducing or non-reducing Laemmli sample buffer, resolved by SDS-PAGE on 8% glycine gels and electro-transferred onto nitrocellulose membranes (GE Healthcare). Following 1 h incubation in 5% skim milk in Tris-Buffered Saline-0.1% Tween (TBST), membranes where incubated with conditioned media of CHO-K1 cells overexpressing either an empty vector (pIRES-V5), PC5A-V5, CHRD-V5, pIRES-D374Y, PCSK9-V5 or its V5-tagged mutants, or incubated with purified AnxA2-(His)6 for 3 h at room temperature. […] For competition experiments, 10 μg of His-tagged PCSK9 or CHRD were added to the PCSK9-V5 media before Far Western blotting. For PCSK9 binding requirements with the ˜33 kDa protein, 1M NaCl, 10 mg/ml heparin, 1M NaCl+10 mg/ml heparin, or 100 mM EDTA were added to the PCSK9-V5 conditioned media used for Far Western blotting.
Wild type human Annexin A2 (AnxA2) (ATCC #MGC-2257) and Annexin A1 (AnxA1) (ATCC #MGC-5095) were purchased from ATCC and subcloned into NheI/SacI digested pIRES2-EGFP vector. An HA epitope ([…]) was fused by PCR mutagenesis at the C-terminus of both AnxA1 and AnxA2. Two-steps PCRs were performed on AnxA2 cDNA to introduce point mutations (N62Q; S64A; K28S+D34N+E36S; R37S+E43H+K47M; 77RRTKK (SEQ ID NO: 26)>AATAK (SEQ ID NO: 27); ^77RRTKK (SEQ ID NO: 26)>AATAA (SEQ ID NO: 28); ^77RRTKKELASALK (SEQ ID NO: 29)>^77AATAAELASALA (SEQ ID NO: 30); 80KKELA (SEQ ID NO: 31)>GKPLD (SEQ ID NO: 32)), or amino acid (aa) deletions (Δ2-24, aa 2-24; ΔR1, aa 37-108; ΔR2, aa 109-192; ΔR3, aa 193-268; ΔR4, aa 269-339; Δ25-36, aa 25-36; Δ37-48, aa 37-48; Δ49-61, aa 49-61; Δ62-75, aa 62-75; Δ37-66, aa 37-66; Δ74-88, aa 74-88; Δ82-88, aa 82-88; Δ89-101, aa 89-101; Δ102-108, aa 102-108) into pIRES2-AnxA2-EGFP vector (see Table 3 above). In addition, using PCR, the AnxA2 segment aa 49-75 was swapped with the corresponding AnxA1 segment aa 58-84 [AnxA1 (aa 58-84)>AnxA2 (aa 49-75)]. Similar swaps were performed for the corresponding AnxA2 sequence with AnxA1 (AnxA1>AnxA2: aa 25-27; aa 28-30; aa 31-33; aa 34-36; aa 37-39; aa 40-42; aa 43-45; aa 46-48; aa 49-75; aa 49-61; aa 62-75). All final cDNA constructs were verified by DNA sequencing.

Chain of PCSK9-V5 (Q8NBP7 153-692): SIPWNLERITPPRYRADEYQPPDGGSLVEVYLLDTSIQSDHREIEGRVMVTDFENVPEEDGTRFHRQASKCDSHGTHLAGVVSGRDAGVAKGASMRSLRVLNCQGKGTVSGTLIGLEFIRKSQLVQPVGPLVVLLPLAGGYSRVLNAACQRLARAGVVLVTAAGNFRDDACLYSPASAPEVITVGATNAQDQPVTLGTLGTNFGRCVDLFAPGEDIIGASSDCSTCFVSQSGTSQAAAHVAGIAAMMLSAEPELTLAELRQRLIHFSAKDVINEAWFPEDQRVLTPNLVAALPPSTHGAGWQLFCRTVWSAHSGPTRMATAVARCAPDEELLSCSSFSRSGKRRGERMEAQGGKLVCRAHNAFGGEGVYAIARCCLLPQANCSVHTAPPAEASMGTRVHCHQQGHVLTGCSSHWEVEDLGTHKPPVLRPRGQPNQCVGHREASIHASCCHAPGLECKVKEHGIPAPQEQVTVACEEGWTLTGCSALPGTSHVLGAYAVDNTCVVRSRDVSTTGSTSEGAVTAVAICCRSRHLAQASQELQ
Chain of PCSK9-V5 (Q8NBP7 31-152 partner limits assumed): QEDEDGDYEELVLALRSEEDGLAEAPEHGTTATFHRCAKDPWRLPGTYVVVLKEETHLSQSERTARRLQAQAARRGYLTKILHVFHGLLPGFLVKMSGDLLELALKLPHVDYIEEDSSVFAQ

Molecule	PCSK9-V5 binding by Far Western blot
80KKELA>GKPLD: AnxA2 with 80KKELA84 replaced by AnxA1 loop sequence 89GKPLD93 (protein, UniProt P07355 2-339, looked up, variant K80G E82P A84D) Annexin A2: STVHEILCKLSLEGDHSTPPSAYGSVKAYTNFDAERDALNIETAIKTKGVDEVTIVNILTNRSNAQRQDIAFAYQRRTGKPLDSALKSALSGHLETVILGLLKTPAQYDASELKASMKGLGTDEDSLIEIICSRTNQELQEINRVYKEMYKTDLEKDIISDTSGDFRKLMVALAKGRRAEDGSVIDYELIDQDARDLYDAGVKRKGTDVPKWISIMTERSVPHLQKVFDRYKSYSPYDMLESIRKEVKGDLENAFLNLVQCIQNKPLYFADRLYDSMKGKGTRDKVLIRIMVSRSEVDMLKIRSEFKRKYGKSLYYYIQQDTKGDYQKALLYLCGGDD	had no appreciable effect on PCSK9 binding
^77AATAK^81: AnxA2 point mutant 77RRTKK81 to AATAK (protein) MSTVHEILCKLSLEGDHSTPPSAYGSVKAYTNFDAERDALNIETAIKTKGVDEVTIVNILTNRSNAQRQDIAFAYQAATAKELASALKSALSGHLETVILGLLKTPAQYDASELKASMKGLGTDEDSLIEIICSRTNQELQEINRVYKEMYKTDLEKDIISDTSGDFRKLMVALAKGRRAEDGSVIDYELIDQDARDLYDAGVKRKGTDVPKWISIMTERSVPHLQKVFDRYKSYSPYDMLESIRKEVKGDLENAFLNLVQCIQNKPLYFADRLYDSMKGKGTRDKVLIRIMVSRSEVDMLKIRSEFKRKYGKSLYYYIQQDTKGDYQKALLYLCGGDDYPYDVPDYA	is critical for the AnxA2-PCSK9 binding
77AATAAELASALA88: AnxA2 point mutant 77…88 to AATAAELASALA (protein, AnxA2 point mutant 77…88 to …) MSTVHEILCKLSLEGDHSTPPSAYGSVKAYTNFDAERDALNIETAIKTKGVDEVTIVNILTNRSNAQRQDIAFAYQAATAAELASALASALSGHLETVILGLLKTPAQYDASELKASMKGLGTDEDSLIEIICSRTNQELQEINRVYKEMYKTDLEKDIISDTSGDFRKLMVALAKGRRAEDGSVIDYELIDQDARDLYDAGVKRKGTDVPKWISIMTERSVPHLQKVFDRYKSYSPYDMLESIRKEVKGDLENAFLNLVQCIQNKPLYFADRLYDSMKGKGTRDKVLIRIMVSRSEVDMLKIRSEFKRKYGKSLYYYIQQDTKGDYQKALLYLCGGDDYPYDVPDYA	abolished binding of AnxA2 to PCSK9
77AATAA81: AnxA2 point mutant 77RRTKK81 to AATAA (protein) MSTVHEILCKLSLEGDHSTPPSAYGSVKAYTNFDAERDALNIETAIKTKGVDEVTIVNILTNRSNAQRQDIAFAYQAATAAELASALKSALSGHLETVILGLLKTPAQYDASELKASMKGLGTDEDSLIEIICSRTNQELQEINRVYKEMYKTDLEKDIISDTSGDFRKLMVALAKGRRAEDGSVIDYELIDQDARDLYDAGVKRKGTDVPKWISIMTERSVPHLQKVFDRYKSYSPYDMLESIRKEVKGDLENAFLNLVQCIQNKPLYFADRLYDSMKGKGTRDKVLIRIMVSRSEVDMLKIRSEFKRKYGKSLYYYIQQDTKGDYQKALLYLCGGDDYPYDVPDYA	is critical for the AnxA2-PCSK9 binding
Δ37-66: AnxA2 deletion of aa 37-66 (protein) MSTVHEILCKLSLEGDHSTPPSAYGSVKAYTNFDAEQRQDIAFAYQRRTKKELASALKSALSGHLETVILGLLKTPAQYDASELKASMKGLGTDEDSLIEIICSRTNQELQEINRVYKEMYKTDLEKDIISDTSGDFRKLMVALAKGRRAEDGSVIDYELIDQDARDLYDAGVKRKGTDVPKWISIMTERSVPHLQKVFDRYKSYSPYDMLESIRKEVKGDLENAFLNLVQCIQNKPLYFADRLYDSMKGKGTRDKVLIRIMVSRSEVDMLKIRSEFKRKYGKSLYYYIQQDTKGDYQKALLYLCGGDDYPYDVPDYA	abolished PCSK9 binding

The remaining lines, values ahead:

PCSK9-V5 binding by Far Western blot	Molecule
abolished PCSK9 binding	Δ82-88: AnxA2 deletion of aa 82-88 (protein) MSTVHEILCKLSLEGDHSTPPSAYGSVKAYTNFDAERDALNIETAIKTKGVDEVTIVNILTNRSNAQRQDIAFAYQRRTKKSALSGHLETVILGLLKTPAQYDASELKASMKGLGTDEDSLIEIICSRTNQELQEINRVYKEMYKTDLEKDIISDTSGDFRKLMVALAKGRRAEDGSVIDYELIDQDARDLYDAGVKRKGTDVPKWISIMTERSVPHLQKVFDRYKSYSPYDMLESIRKEVKGDLENAFLNLVQCIQNKPLYFADRLYDSMKGKGTRDKVLIRIMVSRSEVDMLKIRSEFKRKYGKSLYYYIQQDTKGDYQKALLYLCGGDDYPYDVPDYA
abolished PCSK9 binding	Δ102-108: AnxA2 deletion of aa 102-108 (protein) MSTVHEILCKLSLEGDHSTPPSAYGSVKAYTNFDAERDALNIETAIKTKGVDEVTIVNILTNRSNAQRQDIAFAYQRRTKKELASALKSALSGHLETVILGYDASELKASMKGLGTDEDSLIEIICSRTNQELQEINRVYKEMYKTDLEKDIISDTSGDFRKLMVALAKGRRAEDGSVIDYELIDQDARDLYDAGVKRKGTDVPKWISIMTERSVPHLQKVFDRYKSYSPYDMLESIRKEVKGDLENAFLNLVQCIQNKPLYFADRLYDSMKGKGTRDKVLIRIMVSRSEVDMLKIRSEFKRKYGKSLYYYIQQDTKGDYQKALLYLCGGDDYPYDVPDYA
abolished PCSK9 binding	Δ74-88: AnxA2 deletion of aa 74-88 (protein) MSTVHEILCKLSLEGDHSTPPSAYGSVKAYTNFDAERDALNIETAIKTKGVDEVTIVNILTNRSNAQRQDIAFSALSGHLETVILGLLKTPAQYDASELKASMKGLGTDEDSLIEIICSRTNQELQEINRVYKEMYKTDLEKDIISDTSGDFRKLMVALAKGRRAEDGSVIDYELIDQDARDLYDAGVKRKGTDVPKWISIMTERSVPHLQKVFDRYKSYSPYDMLESIRKEVKGDLENAFLNLVQCIQNKPLYFADRLYDSMKGKGTRDKVLIRIMVSRSEVDMLKIRSEFKRKYGKSLYYYIQQDTKGDYQKALLYLCGGDDYPYDVPDYA
abolished PCSK9 binding	Δ62-75: AnxA2 deletion of aa 62-75 (protein) MSTVHEILCKLSLEGDHSTPPSAYGSVKAYTNFDAERDALNIETAIKTKGVDEVTIVNILTQRRTKKELASALKSALSGHLETVILGLLKTPAQYDASELKASMKGLGTDEDSLIEIICSRTNQELQEINRVYKEMYKTDLEKDIISDTSGDFRKLMVALAKGRRAEDGSVIDYELIDQDARDLYDAGVKRKGTDVPKWISIMTERSVPHLQKVFDRYKSYSPYDMLESIRKEVKGDLENAFLNLVQCIQNKPLYFADRLYDSMKGKGTRDKVLIRIMVSRSEVDMLKIRSEFKRKYGKSLYYYIQQDTKGDYQKALLYLCGGDDYPYDVPDYA
abolished PCSK9 binding	Δ89-101: AnxA2 deletion of aa 89-101 (protein) MSTVHEILCKLSLEGDHSTPPSAYGSVKAYTNFDAERDALNIETAIKTKGVDEVTIVNILTNRSNAQRQDIAFAYQRRTKKELASALKLLKTPAQYDASELKASMKGLGTDEDSLIEIICSRTNQELQEINRVYKEMYKTDLEKDIISDTSGDFRKLMVALAKGRRAEDGSVIDYELIDQDARDLYDAGVKRKGTDVPKWISIMTERSVPHLQKVFDRYKSYSPYDMLESIRKEVKGDLENAFLNLVQCIQNKPLYFADRLYDSMKGKGTRDKVLIRIMVSRSEVDMLKIRSEFKRKYGKSLYYYIQQDTKGDYQKALLYLCGGDDYPYDVPDYA
